Assay results as given in US20070254831A1 (published 2007).
Where two headings read alike, the source gives them in different places. Square brackets hold non-standard residues; d marks the D form. Ends that are not written are not given here.

Assays:
Assay in all cases: ELISA, competitor human IgG
soluble human FcRn [1] = molecular target: T1, soluble human FcRn (human, UniProt P55899 24-297; P61769 21-119, biotinylated (Sulfo-NHS-LC-Biotin) in the ELISA; amine-coupled to CM5 chip in SPR)
T1 construct: also called shFcRn; biotinylated shFcRn
T1 sequence (P55899 24-297 limits assumed, chain 1 of 2): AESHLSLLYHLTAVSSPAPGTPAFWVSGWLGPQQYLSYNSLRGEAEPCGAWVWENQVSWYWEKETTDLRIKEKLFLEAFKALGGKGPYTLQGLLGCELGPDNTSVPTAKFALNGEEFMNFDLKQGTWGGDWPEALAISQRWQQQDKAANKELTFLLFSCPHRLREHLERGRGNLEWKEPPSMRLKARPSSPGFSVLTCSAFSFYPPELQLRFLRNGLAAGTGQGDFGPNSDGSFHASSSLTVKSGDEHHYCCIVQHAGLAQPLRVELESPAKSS
T1 sequence (P61769 21-119 limits assumed, chain 2 of 2): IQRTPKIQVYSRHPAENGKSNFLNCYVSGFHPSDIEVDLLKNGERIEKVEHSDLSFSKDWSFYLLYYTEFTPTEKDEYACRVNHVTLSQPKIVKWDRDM

soluble human FcRn [2] = molecular target: T1, soluble human FcRn; remark: listed apart in the source
Description: (§1) The wells were coated with 100 μl/well of 1 μg/ml biotinylated-shFcRn in Buffer A. The plate was sealed and incubated at 37° C. for 2 hours. Afterwards, the plate washed with 200 μl/well of Buffer B (Buffer B: 100 mM MES pH 6, 150 mM NaCl, 0.5% BSA IgG-free (Jackson ImmunoResearch, West Grove, Pa.), 0.05% Tween-20). […] To allow for mixing, the plate was rocked for 2 minutes, sealed and incubated at 37° C. for 2 hours. […] The plate was covered, incubated for 30 minutes at room temperature and washed 4 times with 200 μl/well of ice-cold buffer B. SureBlue TMB substrate solution (100 μl/well, KPL, Gaithersburg, Md.) was added and the plate was allowed to incubate at room temperature until color developed, which took 5 to 10 minutes. Once color developed, 100 μl/well of TMB stop solution (KPL, Gaithersburg, Md.) was added and the absorbance was measured at 450 nm. The data was plotted as absorbance vs. peptide concentration to derive the inhibitory concentration 50% (IC₅₀) values.

soluble human FcRn [3] = molecular target: T1, soluble human FcRn; remark: listed apart in the source
Description: as §1

B1: Peptide No. 167 (peptide)
peptide: QRFVTGHFG[dP]LYPVANGP-NH2
modifications: N-terminus assumed
SMILES: CC(C)C[C@H](NC(=O)[C@H]1CCCN1C(=O)CNC(=O)[C@H](Cc1ccccc1)NC(=O)[C@H](Cc1c[nH]cn1)NC(=O)CNC(=O)[C@@H](NC(=O)[C@@H](NC(=O)[C@H](Cc1ccccc1)NC(=O)[C@H](CCCNC(=N)N)NC(=O)[C@@H](N)CCC(N)=O)C(C)C)[C@@H](C)O)C(=O)N[C@@H](Cc1ccc(O)cc1)C(=O)N1CCC[C@H]1C(=O)N[C@H](C(=O)N[C@@H](C)C(=O)N[C@@H](CC(N)=O)C(=O)NCC(=O)N1CCC[C@H]1C(N)=O)C(C)C
notes: printed with -VA- before NGP
B1 gave an IC50 (soluble human FcRn [1]) of 93 µM.

QRFXTGHWGGLYPCNGP (Pen at 4; disulfide; C-terminal amide) [Peptide No. 95] showed an IC50 (soluble human FcRn [2]) of 26 µM.

QRFXTGHXGGLYPCNGP (Pen at 4; 2-pyridylalanine at 8; disulfide; C-terminal amide) [Peptide No. 58] was tested, and the IC50 (soluble human FcRn [2]) was 90 µM.

B2: Peptide No. 193 (peptide)
peptide: RFXTGHFXLYPC
modifications: Pen at 3; X at 8 = (3S)-3-amino-2-oxo-1-piperidine-acetic acid; disulfide; C-terminal amide
In the case of B2, the IC50 (soluble human FcRn [3]) is reported as 7.3 µM.

B3: Peptide No. 181 (peptide)
peptide: RFXTGHFXLYPC
modifications: Pen at 3; X at 8 = 3-amino-N-1-carboxymethyl-2,3,4,5-tetrahydro-1H-[1]-benzazepine-2-one (drawing CHEM-US-00084); disulfide; C-terminal amide
For B3, the IC50 (soluble human FcRn [3]) was 1.2 µM.

B4: Peptide No. 80 (as printed in Table 18) (peptide)
peptide: RFXTGHFXLYPC
modifications: Pen at 3; X at 8 = 3-amino-N-1-carboxymethyl-2,3,4,5-tetrahydro-1H-[1]-benzazepine-2-one (drawing CHEM-US-00083); disulfide; C-terminal amide
B4 gave an IC50 (soluble human FcRn [3]) of 159 µM.

In the case of RFXTGHXGGLYPC (Pen at 3; 3,3-Di-Phe at 7; disulfide; C-terminal amide) [Peptide No. 224], the IC50 (soluble human FcRn [2]) is reported as 32 µM.

B5: Peptide No. 210 (peptide)
peptide: RFVTGHFG[dP]WYPANGP-NH2
modifications: N-terminus assumed
SMILES: CC(C)[C@H](NC(=O)[C@H](Cc1ccccc1)NC(=O)[C@@H](N)CCCNC(=N)N)C(=O)N[C@H](C(=O)NCC(=O)N[C@@H](Cc1c[nH]cn1)C(=O)N[C@@H](Cc1ccccc1)C(=O)NCC(=O)N1CCC[C@@H]1C(=O)N[C@@H](Cc1c[nH]c2ccccc12)C(=O)N[C@@H](Cc1ccc(O)cc1)C(=O)N1CCC[C@H]1C(=O)N[C@@H](C)C(=O)N[C@@H](CC(N)=O)C(=O)NCC(=O)N1CCC[C@H]1C(N)=O)[C@@H](C)O
Work on B5 yielded an IC50 (soluble human FcRn [1]) of 100 µM.

RFXTGHFXLYPC (Pen at 3; X at 8 = 6,5-bicyclic dipeptide mimic; disulfide; C-terminal amide) [Peptide No. 204] gave an IC50 (soluble human FcRn [3]) of 2.2 µM.

With RFXTGHXGGLYPC (Pen at 3; 2-Cl-Phe at 7; disulfide; C-terminal amide) [Peptide No. 221] the IC50 (soluble human FcRn [2]) was 4 µM.

With RFXTGHXGGLYPC (Pen at 3; 3-Cl-Phe at 7; disulfide; C-terminal amide) [Peptide No. 222] the IC50 (soluble human FcRn [2]) was 3.7 µM.

B6: Peptide No. 198 (peptide)
peptide: RFXTGHFXLYPC
modifications: Pen at 3; X at 8 = 5,5-bicyclic dipeptide mimic (drawing CHEM-US-00086); disulfide; C-terminal amide
B6 gave an IC50 (soluble human FcRn [3]) of 23 µM.

B7: Peptide No. 176 (peptide)
peptide: QRFVTGHFG[dP]YYPANGP-NH2
modifications: N-terminus assumed
SMILES: CC(C)[C@H](NC(=O)[C@H](Cc1ccccc1)NC(=O)[C@H](CCCNC(=N)N)NC(=O)[C@@H](N)CCC(N)=O)C(=O)N[C@H](C(=O)NCC(=O)N[C@@H](Cc1c[nH]cn1)C(=O)N[C@@H](Cc1ccccc1)C(=O)NCC(=O)N1CCC[C@@H]1C(=O)N[C@@H](Cc1ccc(O)cc1)C(=O)N[C@@H](Cc1ccc(O)cc1)C(=O)N1CCC[C@H]1C(=O)N[C@@H](C)C(=O)N[C@@H](CC(N)=O)C(=O)NCC(=O)N1CCC[C@H]1C(N)=O)[C@@H](C)O
With B7 the IC50 (soluble human FcRn [1]) was 230 µM.

B8: Peptide No. 190 (peptide)
peptide: QRFVTGHFG[dP]WYPINGP-NH2
modifications: N-terminus assumed
SMILES: CC[C@H](C)[C@H](NC(=O)[C@@H]1CCCN1C(=O)[C@H](Cc1ccc(O)cc1)NC(=O)[C@H](Cc1c[nH]c2ccccc12)NC(=O)[C@H]1CCCN1C(=O)CNC(=O)[C@H](Cc1ccccc1)NC(=O)[C@H](Cc1c[nH]cn1)NC(=O)CNC(=O)[C@@H](NC(=O)[C@@H](NC(=O)[C@H](Cc1ccccc1)NC(=O)[C@H](CCCNC(=N)N)NC(=O)[C@@H](N)CCC(N)=O)C(C)C)[C@@H](C)O)C(=O)N[C@@H](CC(N)=O)C(=O)NCC(=O)N1CCC[C@H]1C(N)=O
B8 gave an IC50 (soluble human FcRn [1]) of 49 µM.
